Literature values, collected in patent publication US20130079279A1, “PHARMACEUTICAL COMPOSITION COMPRISING AVE0010 AND INSULIN GLARGINE” (SANOFI-AVENTIS DEUTSCHLAND GMBH, priority 2010, published 2013).

Tested on: anti-lixisenatide antibodies
Settings: previous study ACT6011; end of a two week period after repeated injections

For “desPro^36Exendin-4(1-39)-Lys6-NH2 [lixisenatide]”, the Anti-lixisenatide antibodies is given as “not detected”.
